Source: article PMC9878632 (ACS Omega, 2023)

Tests used:
AUC = target: the molecule itself; test: AUC
crystal structure = target: the molecule itself; test: crystal structure

B1: PYCR1 T171M variant (human Δ1-pyrroline-5-carboxylate reductase 1, Thr171Met) (enzyme, UniProt P32322 1-300, looked up)
chain: MSVGFIGAGQLAFALAKGFTAAGVLAAHKIMASSPDMDLATVSALRKMGVKLTPHNKETVQHSDVLFLAVKPHIIPFILDEIGADIEDRHIVVSCAAGVTISSIEKKLSAFRPAPRVIRCMTNTPVVVREGATVYATGTHAQVEDGRLMEQLLSSVGFCTEVEEDLIDAVMGLSGSGPAYAFTALDALADGGVKMGLPRRLAVRLGAQALLGAAKMLLHSEQHPGQLKDNVSSPGGATIHALHVLESGGFRSLLINAVEASCIRTRELQSMADQEQVSPAAIKKTILDKVKLDSPAGTAL
stoichiometry N (AUC): 2 | stoichiometry N (crystal structure): 10
